# In US20140221283A1 (INDIANA UNIVERSITY RESEARCH AND TECHNOLOGY, published 2014):
# *1 amine or outer side, *2 acyl side, *3 side chain or, on linkers, in order; H or OH if unused. Where no end group is shown, it is not given here. Side-chain parts run from the residue outwards. [ ]: non-standard residue; d: D form. The star is where a group is joined. γGlu = O=C(O)[C@H](CCC(=O)[*:2])N[*:1]; Palmitoyl = CCCCCCCCCCCCCCCC(=O)*; Met(O) = CS(=O)CC[C@H](N)C(=O)O; Aib = CC(C)(N)C(=O)O
# T1: GIP receptor (assay by the procedure of Example 3)
# T1 sequence (P48546 whole entry, species assumed, looked up): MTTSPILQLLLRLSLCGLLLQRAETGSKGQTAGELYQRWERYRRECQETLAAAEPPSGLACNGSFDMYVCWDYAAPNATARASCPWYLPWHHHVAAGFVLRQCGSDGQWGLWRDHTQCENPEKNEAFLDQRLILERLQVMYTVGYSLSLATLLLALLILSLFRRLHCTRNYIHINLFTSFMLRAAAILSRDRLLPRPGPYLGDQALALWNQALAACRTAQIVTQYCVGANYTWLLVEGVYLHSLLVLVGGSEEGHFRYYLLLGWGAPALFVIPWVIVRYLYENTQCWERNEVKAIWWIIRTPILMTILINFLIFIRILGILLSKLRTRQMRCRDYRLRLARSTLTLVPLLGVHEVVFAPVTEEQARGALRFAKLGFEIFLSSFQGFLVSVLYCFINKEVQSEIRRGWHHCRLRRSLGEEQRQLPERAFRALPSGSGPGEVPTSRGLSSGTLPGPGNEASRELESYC
# B1: peptide of SEQ ID NO: 15 (peptide)
# peptide: H[Aib]QGTFTSDK([γGlu-γGlu-Palmitoyl])SKYLD[Aib]RAAQDFVQWL[Met(O)]DTKQ-OH
# modifications: not fully specified; printed as HaibQGTFTSDK(γGlu-γGlu-C16)SKYLDaibRAAQDFVQWLMornDTKQ-acid
# B2: peptide of SEQ ID NO: 14 (peptide)
# peptide: HSQGTFTSDKSKYLDERAAQDFVQWLLDTKX
# modifications: lower-case 's' at position 2 (taken as D-Ser; the table does not explain it); Lys at position 10 acylated as K(γGlu-C16); C-terminal γGlu; C-terminal amide
# B3: peptide of SEQ ID NO: 16 (peptide)
# peptide: H[Aib]QGTFTSDK([γGlu-γGlu-Palmitoyl])SKYLD[Aib]RAAQDFVQWLLDTKQ-OH
# modifications: N-terminus assumed
# SMILES: CCCCCCCCCCCCCCCC(=O)N[C@@H](CCC(=O)N[C@@H](CCC(=O)NCCCC[C@H](NC(=O)[C@H](CC(=O)O)NC(=O)[C@H](CO)NC(=O)[C@@H](NC(=O)[C@H](Cc1ccccc1)NC(=O)[C@@H](NC(=O)CNC(=O)[C@H](CCC(N)=O)NC(=O)C(C)(C)NC(=O)[C@@H](N)Cc1c[nH]cn1)[C@@H](C)O)[C@@H](C)O)C(=O)N[C@@H](CO)C(=O)N[C@@H](CCCCN)C(=O)N[C@@H](Cc1ccc(O)cc1)C(=O)N[C@@H](CC(C)C)C(=O)N[C@@H](CC(=O)O)C(=O)NC(C)(C)C(=O)N[C@@H](CCCNC(=N)N)C(=O)N[C@@H](C)C(=O)N[C@@H](C)C(=O)N[C@@H](CCC(N)=O)C(=O)N[C@@H](CC(=O)O)C(=O)N[C@@H](Cc1ccccc1)C(=O)N[C@H](C(=O)N[C@@H](CCC(N)=O)C(=O)N[C@@H](Cc1c[nH]c2ccccc12)C(=O)N[C@@H](CC(C)C)C(=O)N[C@@H](CC(C)C)C(=O)N[C@@H](CC(=O)O)C(=O)N[C@H](C(=O)N[C@@H](CCCCN)C(=O)N[C@@H](CCC(N)=O)C(=O)O)[C@@H](C)O)C(C)C)C(=O)O)C(=O)O
# Target: T1, GIP receptor (assay by the procedure of …)
# Assay: cell-based or functional assay
row,Binder,EC50 (nM) at GIP receptor (procedure of Example 3)
1,B1,1.9 nM
2,B2,976 nM
3,H[Aib]QGTFTSDYSKYLDERRA[Aib]EFVC(40K‑TE PEG)WLLDTK[γGlu]-NH2 [peptide of SEQ ID NO: 13],140 nM
4,H[Aib]QGTFTSDK([γGlu-γGlu-Palmitoyl])SKYLD[Aib]RAAQDFVQWLMDTK[γGlu]-NH2 [peptide of SEQ ID NO: 12],12.8 nM
5,B3,1.04 nM
